Test results reported in patent publication US20160340442A1 (Dana-Farber, published 2016).

T1: cell surface MUC1-C protein (human, UniProt P15941 1098-1255)
T1 sequence: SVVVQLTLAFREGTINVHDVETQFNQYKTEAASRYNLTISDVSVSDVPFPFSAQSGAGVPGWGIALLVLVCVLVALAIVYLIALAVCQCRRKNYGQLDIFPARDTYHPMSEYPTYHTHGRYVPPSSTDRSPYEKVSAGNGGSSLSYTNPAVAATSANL

T2: MUC1-CQC→AQA mutant (human, UniProt P15941 1098-1255)
T2 construct: also called HCT116/MUC1-CQC→AQA mutant cells
T2 chain: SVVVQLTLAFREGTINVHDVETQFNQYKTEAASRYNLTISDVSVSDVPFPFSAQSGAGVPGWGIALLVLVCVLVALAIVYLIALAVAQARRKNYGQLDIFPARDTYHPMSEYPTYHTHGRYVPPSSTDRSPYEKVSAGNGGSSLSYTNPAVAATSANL

T3: P3 (human)
T3 construct: Synthetic overlapping peptide of MUC1-C/ECD; also called peptide P3
T3 peptide: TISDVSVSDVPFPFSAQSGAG

T4: P1 (human)
T4 construct: Synthetic overlapping peptide of MUC1-C/ECD; also called peptide P1
T4 peptide: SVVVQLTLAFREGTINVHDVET

T5: P2 (human)
T5 construct: Synthetic overlapping peptide of MUC1-C/ECD; also called peptide P2
T5 peptide: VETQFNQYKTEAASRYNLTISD

T6: MUC1-C/ECD protein (human, UniProt P15941 1098-1155)
T6 construct: also called MUC1-C/ECD antigen; the antigen
T6 sequence: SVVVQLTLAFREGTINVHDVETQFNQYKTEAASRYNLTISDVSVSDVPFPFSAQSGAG

T7: bacterially-produced MUC1-C/ECD protein (human, UniProt P15941 1098-1155)
T7 construct: Produced in bacteria; also called MUC1 proteins made in bacteria; p58-mFc
T7 sequence: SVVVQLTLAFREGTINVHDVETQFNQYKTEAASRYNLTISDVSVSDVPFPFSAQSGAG

T8: MUC1-C/ECD-hFc (human, UniProt P15941 1098-1155)
T8 construct: The screening text says the antigen was MUC1-C/ECD-mFc or MUC1-C/ECD-hFc; the hFc form is used here because hFc alone was the negative control; also called hFc-MUC1-C/ECD; MUC1-ECD-hFc; not shown: human Fc (hFc)
T8 sequence: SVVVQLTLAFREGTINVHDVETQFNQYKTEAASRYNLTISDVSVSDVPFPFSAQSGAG


Key:
[1] = target: T1, cell surface MUC1-C protein; test: cell-based or functional assay
MUC1-CQC→AQA mutant = target: T2, MUC1-CQC→AQA mutant; test: flow cytometry, HCT116/MUC1-CQC→AQA mutant cells
Method: FIG. 37. HCT116/MUC1-wild-type and HCT116/MUC1-CQC→AQA mutant cells 7B8 for 30 min, washed, incubated with goat anti-mouse immunoglobulin-flourescein-conjugated antibody (Santa Cruz Biotechnology), and fixed in 1% formaldehyde/PBS. Reactivity was detected by immunofluorescence FACScan.

[2] = target: T1, cell surface MUC1-C protein; test: flow cytometry, ZR-75-1 cells, competitive format with purified MUC1-C/ECD protein; 7B8 binding not abrogated
Method: Characterized of 7B8 and 3D1 antibodies. Linear epitope mapping of 7B8 and 3D1 clones was performed using three overlapping peptides spanning the entire MUC1-C/ECD region (58 amino acids) were synthesized. ELISA assays were performed using 7B8 or 3D1 purified antibodies in the presence or absence of P1, P2 or P3 peptides. […] Conformational epitope mapping of 7B8 and 3D1 was performed using eight critical individual point mutants in the MUC1-C/ECD region by ELISA. […] These findings indicate that D19 is a part of the conformational core/pocket for 3D1 binding. ZR-75-1 breast carcinoma cells were used determine 7B8 or 3D1 antibody binding in a competitive format with MUC1-C/ECD and analyzed by FLOW. […] These findings indicate that the conformational binding epitopes of 7B8 and 3D1 are different. The sequencing results for hybridoma 3D1 is shown in FIG. 50 and is discussed in greater detail below.

P3 = target: T3, P3; test: ELISA, peptide as competitor (indirect: peptide did not inhibit binding to the antigen)
P1 = target: T4, P1; test: as above
P2 = target: T5, P2; test: as above
MUC1-C/ECD protein [3] = target: T6, MUC1-C/ECD protein; test: ELISA, plates coated with the MUC1-C/ECD antigen
[4] = target: T1, cell surface MUC1-C protein; test: surface staining, flow cytometry, K562 CTL-siRNA cells; 2 µg antibody/sample; fixed samples kept at 4° C. for 4 days
[5] = target: T1, cell surface MUC1-C protein; test: surface staining, flow cytometry, K562 MUC1-siRNA cells (MUC1 silenced); 2 µg antibody/sample
[6] = target: T1, cell surface MUC1-C protein; test: surface staining, flow cytometry, ZR-75-1 cells (third row); 2 µg antibody/sample
[7] = target: T1, cell surface MUC1-C protein; test: surface staining, flow cytometry, KU812 CML cells; 2 µg antibody/sample
[8] = target: T1, cell surface MUC1-C protein; test: surface staining, flow cytometry, K562 CML cells; 2 µg antibody/sample
[9] = target: T1, cell surface MUC1-C protein; test: flow cytometry, ZR-75-1, MCF-7 and HCT-116/MUC1 cells
Description: FIG. 35. […] Reactivity was detected by immunofluorescence FACScan.
FIG. 36. […] Reactivity was detected by immunofluorescence FACScan.

MUC1-C/ECD protein [10] = target: T6, MUC1-C/ECD protein; test: ELISA, plates coated with the antigen, multiple antibody concentrations
Method: FIG. 38. ELISA assays were performed by coating plates with the antigen and reactivity with multiple different concentrations of purified antibodies 7B8, 4G5 and 2B11.

[11] = target: T7, bacterially-produced MUC1-C/ECD protein; test: Western blot
MUC1-C/ECD-hFc = target: T8, MUC1-C/ECD-hFc; test: hybridoma screen, indirect ELISA or Western blot; antigen MUC1-C/ECD-mFc or MUC1-C/ECD-hFc
Method: ELISA. ELISA was performed by coating the plates with 100 μl of 1 μg/ml MUC1-C/ECD-hFc or MUC1-C/ECD-mFc or hFc (as negative control). Hybridoma supernatants or immune sera were screened against the coated proteins by incubating with the plate for 1 hr. The bound antibody was detected by incubating with specific secondary antibody (anti-mouse Ig, F(ab)₂ specific) conjugated to HRP (horse radish peroxidase). Further, the reaction was developed with HRP-specific substrate for 30 min and the plate was read at 405 nm.
Fusion for Hybridoma and Primary Screening. Based on the results obtained from the ELISA, spleen from both mice was used for fusion with myeloma cells to generate hybridoma. Spleen-myeloma fusion was performed by mixing mouse myeloma cells sp2/0-Ag14 and splenocytes in 1:3 ratio in the presence of polyethylene glycol (PEG). Post fusion cell culture was carried out in selective HAT medium. Hybridomas selected by indirect ELISA or Western blot using recombinant MUC-C/ECD-mFc or MUC1-C/ECD-hFc as the antigen and were subjected to subcloning by limiting dilution protocol until the clones become stable. The fusion clones obtained from the spleen of mouse 1 is termed as 315.1 clones and similarly the one from mouse 2 is called 315.2 clones. The fusion clones obtained from the spleen of mouse 1 from other immunization batch is termed as 384 clones. […]

binding result (P3) | binding result (P1) | binding result (P2) | flow cytometry value (unit not given) [4] | flow cytometry value (unit not given) [5] | flow cytometry value (unit not given) [6] | flow cytometry value (unit not given) [7] | flow cytometry value (unit not given) [8] | Binder | further results
 |  |  |  |  |  |  |  | 7B8-MMAF (other, monomethyl auristatin F (MMAF) via cleavable linker valine-citrulline-p-aminobenzyl (Val-Cit-PAB); attachment residues not stated) VH: QVQLQQPGAELVKPGASEKLSCKASGHTFTSYWMHWVKQRPGQGLEWIGEINPSNGRTYYNENFKTKATLTVDKYSSSASMQLRSLTSEDSAVYYCASDGDYVSGFAYWGQGTTLTVSS VL: DIVLTQSPGSLAVSLGQSVTISCRASESVQYSGTSLMHWYQQKPGQPPKLLIYGASNVETGVPARFSGSGSGTDFSLNIHPVEEDDIAMYFCQQNWKVPWTFGGGTKLEIK | dose-dependent inhibition of proliferation in ZR-75-1 breast carcinoma cells, IC50 [1]: ~860 pM
no binding | no binding | no binding |  |  |  |  |  | 400.6.7B8.G3.G1 (antibody, IgG2a, V domains shown) VH: QVQLQQPGAELVKPGASEKLSCKASGHTFTSYWMHWVKQRPGQGLEWIGEINPSNGRTYYNENFKTKATLTVDKYSSSASMQLRSLTSEDSAVYYCASDGDYVSGFAYWGQGTTLTVSS VL: DIVLTQSPGSLAVSLGQSVTISCRASESVQYSGTSLMHWYQQKPGQPPKLLIYGASNVETGVPARFSGSGSGTDFSLNIHPVEEDDIAMYFCQQNWKVPWTFGGGTKLEIK | binding result (MUC1-CQC→AQA mutant): binds; binding result [2]: binds; binding result (MUC1-C/ECD protein [3]): binds
 |  |  | 22.6 | 6.26 | 2.16 | 31.6 | 9.31 | 315.1.6A6.C11.G5 (antibody, V domains shown, also called MAb 6A6; Clone 6A6) VH: QVQLKESGPGLVAPSQSLSMTCTVSGFSLTTYGVHWVRQPPGKGLEWLVVIWSDGSTTYNSPLKSRLSISRDNSKSQVFLKMNSLQADDTAIYYCAKNYLGSLDYWGQGTSVTVSS VL: DVVLTQTPLSLPVSLGDQASISCRSSQSLVHNNGDTYLHWYLQKPGQSPKLLIYKVSNRFSGVPDRFSGSGSGTDFTFKISRVEAEDLGVYFCSQTTHVPLTFGAGTKLELK | 
 |  |  | 34.4 | 6.37 | 1.57 | 39.9 | 9.58 | 315.2.8F1.D2.D1 (antibody, V domains shown, also called Clone 8F1; P58-8F1) VH: EVQLVESGGGLVQPGESLKLSCESNEYEFPSHDMSWVRKTPEKRLELVAAINSDGGSTYYPDTMERRFIISRDNTKKTLYLQMSSLRSEDTALYYCVRLYYGNVMDYWGQGTSVTVSS VL: DVVMTQTPLSLPVSLGDQASISCRSSQSLVHSNGNTYLYWYLQKPGQSPKLLIYKVSNRFSGVPDRFSGSGSGTDFTLKISRVEAEDLGVYFCSQSTHVPLTFGAGTKLELK | 
 |  |  | 22.4 | 6.91 | 1.61 | 39.6 | 8.65 | 315.2.8E1.F7.C3.H7.H8.F5 (antibody, V domains shown, also called MAb 8E1; Clone 8E1) VH: EVQLVESGGGLVQPGESLKLSCESNEYEFPSHDMSWVRKTPEKRLELVAAINSDGGSTYYPDTMERRFIISRDNTKKTLYLQMSSLRSEDTALYYCVRLYYGNVMDYWGQGTSVTVSS VL: DVVMTQTPLSLPVSLGDQASISCRSSQSLVHSNGNTYLYWYLQKPGQSPKLLIYKVSNRFSGVPDRFSGSGSGTDFTLKISRVEAEDLGVYFCSQSTHVPLTFGAGTKLELK | 
no binding | no binding | no binding |  |  |  |  |  | 400.6.4G5.E11.G2 (antibody, IgG1, V domains shown) VH: QITLKESGPGILQPSQTLSLTCSFSGFSLSTSGMGVSWIRQPSGKGLEWLSHIYWDDDKRYNPSLKSRLSISKDTSRNQVFLKITSVDTADTATYYCAPGVSSWFPYWGPGTLVTVSA VL: SIVMTQTPKFLPVSAGDRVTVTCKASQSVGNYVAWYQQKPGQSPKLLIYFASNRYSGVPDRFTGSGSGTDFTFTISSVQVEDLAVYFCQQHYIFPYTFGSGTKLEIK | binding result [9]: binds; binding result (MUC1-C/ECD protein [10]): binds
 |  |  |  |  |  |  |  | 384.1.2H11.F2.G6 (antibody, V domains shown, The printed entries run a few residues into the constant regions; also called 384.2H11.F2.G6) VH: QIQLVQSGPELKKPGETVKTSCKASGYTFTGYSMHWVKQAPGKGLKWMGWINTETGEPTYADDFKGRFALSLETSASTTYLQINNLKNEDTATYFCVRGTGGDDWGQGTTLTVSS VL: DVVMTQTPLSLPVSLGDQASISCRSSQSLVHSNGNTYLHWYLQKPGQSPKLLIYKVSNRFSGVPDRFSGSGSGTDFTLKINRVEAEDLGVYFCSQGTHVPPTFGGGTKLEIKR | binding result [11]: binds; binding result (MUC1-C/ECD-hFc): binds
no binding | no binding | no binding |  |  |  |  |  | 400.6.2B11.D5.F6 (antibody, IgG1, V domains shown) VH: QVQLQQSGAELMKPGASVKISCKAIGFTFNYFWIEWVKQRPGHGLEWIGEILPGTGSTNYNEKFKGKAIFTADTSSNTAYMQLRSLTSEDSAVYYCVRYDYTSSMDYWGQGTSVTVSS VL: NIVMTQSPKSMSMSVGERVTLTCKASENVGTYVSWYQQKPEQSPKLLIYGASNRYTGVPNRFTGSGSATDFTLTISSVQAEDLADYYCGQSYSYPWTFGGGTKLEIK | binding result [9]: binds; binding result (MUC1-C/ECD protein [10]): binds
